Experimental data taken from article PMC5150538, “Structural basis of myelin-associated glycoprotein adhesion and signalling” (Nature Communications, 2016).

What was measured:
[1] = SAXS; details: glycan lost; control: glycosylated wt MAG1–5
[2] = size exclusion chromatography; details: glycan lost; control: wt and other MAG constructs
[3] = sedimentation equilibrium AUC, monomer-dimer fit; details: glycan lost; control: glycosylated wt MAG1–5
[4] = target: the molecule itself; test: SAXS; ESRF BM29, SEC buffer (150 mM NaCl, 20 mM HEPES pH 7.5), 20 °C (277 K for deglycosylated MAG1–5 N406Q), single concentration of 33-52 μM for each sample; monomer to dimer
[5] = target: the molecule itself; test: AUC; sedimentation equilibrium, SEC buffer (150 mM NaCl, 20 mM HEPES pH 7.5), 20 °C, 7,500, 14,000 and 20,000 r.p.m., global analysis of several concentrations, speeds and wavelengths; monomer to dimer
[6] = target: the molecule itself; test: SEC; Superdex200 Hiload 16/60, 150 mM NaCl, 20 mM HEPES pH 7.5

B1: Myelin-associated glycoprotein (MAG, Siglec4a): N406Q (protein)
parent chain: MIFLATLPLFWIMISASRGGHWGAWMPSTISAFEGTCVSIPCRFDFPDELRPAVVHGVWYFNSPYPKNYPPVVFKSRTQVVHESFQGRSRLLGDLGLRNCTLLLSTLSPELGGKYYFRGDLGGYNQYTFSEHSVLDIVNTPNIVVPPEVVAGTEVEVSCMVPDNCPELRPELSWLGHEGLGEPTVLGRLREDEGTWVQVSLLHFVPTREANGHRLGCQAAFPNTTLQFEGYASLDVKYPPVIVEMNSSVEAIEGSHVSLLCGADSNPPPLLTWMRDGMVLREAVAKSLYLDLEEVTPGEDGVYACLAENAYGQDNRTVELSVMYAPWKPTVNGTVVAVEGETVSILCSTQSNPDPILTIFKEKQILATVIYESQLQLELPAVTPEDDGEYWCVAENQYGQRATAFNLSVEFAPIILLESHCAAARDTVQCLCVVKSNPEPSVAFELPSRNVTVNETEREFVYSERSGLLLTSILTIRGQAQAPPRVICTSRNLYGTQSLELPFQGAHRLMWAKIGPVGAVVAFAILIAIVCYITQTRRKKNVTESSSFSGGDNPHVLYSPEFRISGAPDKYESEKQRLGSERRLLGLRGESPELDLSYSHSDLGKRPTKDSYTLTEELAEYAEIRVK
- oligomerisation, other: Rg [1]: increases, 7.3 vs 6.8
- oligomerisation [2]: increases

B2: Myelin-associated glycoprotein (MAG, Siglec4a): Endo-Hf (protein)
parent chain: MIFLATLPLFWIMISASRGGHWGAWMPSTISAFEGTCVSIPCRFDFPDELRPAVVHGVWYFNSPYPKNYPPVVFKSRTQVVHESFQGRSRLLGDLGLRNCTLLLSTLSPELGGKYYFRGDLGGYNQYTFSEHSVLDIVNTPNIVVPPEVVAGTEVEVSCMVPDNCPELRPELSWLGHEGLGEPTVLGRLREDEGTWVQVSLLHFVPTREANGHRLGCQAAFPNTTLQFEGYASLDVKYPPVIVEMNSSVEAIEGSHVSLLCGADSNPPPLLTWMRDGMVLREAVAKSLYLDLEEVTPGEDGVYACLAENAYGQDNRTVELSVMYAPWKPTVNGTVVAVEGETVSILCSTQSNPDPILTIFKEKQILATVIYESQLQLELPAVTPEDDGEYWCVAENQYGQRATAFNLSVEFAPIILLESHCAAARDTVQCLCVVKSNPEPSVAFELPSRNVTVNETEREFVYSERSGLLLTSILTIRGQAQAPPRVICTSRNLYGTQSLELPFQGAHRLMWAKIGPVGAVVAFAILIAIVCYITQTRRKKNVTESSSFSGGDNPHVLYSPEFRISGAPDKYESEKQRLGSERRLLGLRGESPELDLSYSHSDLGKRPTKDSYTLTEELAEYAEIRVK
- oligomerisation, other: Rg [1]: increases, 7.3 vs 6.8
- oligomerisation, KD [3]: increases, 167 vs 382

B3: MAG1–5 wt glycosylated (full extracellular segment of mouse myelin-associated glycoprotein) (domain or fragment, UniProt P20917 20-508, looked up)
chain: GHWGAWMPSTISAFEGTCVSIPCRFDFPDELRPAVVHGVWYFNSPYPKNYPPVVFKSRTQVVHESFQGRSRLLGDLGLRNCTLLLSTLSPELGGKYYFRGDLGGYNQYTFSEHSVLDIVNTPNIVVPPEVVAGTEVEVSCMVPDNCPELRPELSWLGHEGLGEPTVLGRLREDEGTWVQVSLLHFVPTREANGHRLGCQAAFPNTTLQFEGYASLDVKYPPVIVEMNSSVEAIEGSHVSLLCGADSNPPPLLTWMRDGMVLREAVAKSLYLDLEEVTPGEDGVYACLAENAYGQDNRTVELSVMYAPWKPTVNGTVVAVEGETVSILCSTQSNPDPILTIFKEKQILATVIYESQLQLELPAVTPEDDGEYWCVAENQYGQRATAFNLSVEFAPIILLESHCAAARDTVQCLCVVKSNPEPSVAFELPSRNVTVNETEREFVYSERSGLLLTSILTIRGQAQAPPRVICTSRNLYGTQSLELPFQGAHR
modifications: N-linked glycans (made in GnTI- cells); C-mannosylation on W22
notes: Myelin-associated glycoprotein (MAG), mouse, Ig domains 1-5, residues 20-508 (UniProt numbering, starts after the signal peptide); template mouse S-MAG cDNA; Vector pUPE107.03 with a cystatin secretion signal peptide and a C-terminal His6-tag; also called wt MAG1–5; MAG full ectodomain; source: HEK293 GnTI- EBNA1 cells in suspension, transient, secreted; purified (Ni-NTA, SEC)
- fraction of dimer (OLIGOMER fit, monomer:dimer ratio at 52 μM) [4]: 0.28 fraction
- Kd [5]: 382 µM
- stoichiometry N [5]: 2

B4: MAG1–5 wt deglycosylated (domain or fragment, mouse, UniProt P20917 20-508, looked up)
chain: GHWGAWMPSTISAFEGTCVSIPCRFDFPDELRPAVVHGVWYFNSPYPKNYPPVVFKSRTQVVHESFQGRSRLLGDLGLRNCTLLLSTLSPELGGKYYFRGDLGGYNQYTFSEHSVLDIVNTPNIVVPPEVVAGTEVEVSCMVPDNCPELRPELSWLGHEGLGEPTVLGRLREDEGTWVQVSLLHFVPTREANGHRLGCQAAFPNTTLQFEGYASLDVKYPPVIVEMNSSVEAIEGSHVSLLCGADSNPPPLLTWMRDGMVLREAVAKSLYLDLEEVTPGEDGVYACLAENAYGQDNRTVELSVMYAPWKPTVNGTVVAVEGETVSILCSTQSNPDPILTIFKEKQILATVIYESQLQLELPAVTPEDDGEYWCVAENQYGQRATAFNLSVEFAPIILLESHCAAARDTVQCLCVVKSNPEPSVAFELPSRNVTVNETEREFVYSERSGLLLTSILTIRGQAQAPPRVICTSRNLYGTQSLELPFQGAHR
modifications: N-linked glycans trimmed down to single N-Acetylglucosamines by Endo-Hf; C-mannosylation on W22
notes: Myelin-associated glycoprotein (MAG), mouse, Ig domains 1-5, residues 20-508 (UniProt numbering, starts after the signal peptide); template mouse S-MAG cDNA; Same construct as m1 after Endo-Hf treatment; also called deglycosylated MAG1–5; deglycosylated wt MAG1–5; source: HEK293 GnTI- EBNA1 cells in suspension, transient, secreted; purified (Ni-NTA, SEC); deglycosylated with Endo-Hf overnight at …
- Kd [5]: 167 µM
- stoichiometry N [5]: 2

B5: MAG1–5 N406Q deglycosylated (domain or fragment, mouse, UniProt P20917 20-508, looked up)
chain: GHWGAWMPSTISAFEGTCVSIPCRFDFPDELRPAVVHGVWYFNSPYPKNYPPVVFKSRTQVVHESFQGRSRLLGDLGLRNCTLLLSTLSPELGGKYYFRGDLGGYNQYTFSEHSVLDIVNTPNIVVPPEVVAGTEVEVSCMVPDNCPELRPELSWLGHEGLGEPTVLGRLREDEGTWVQVSLLHFVPTREANGHRLGCQAAFPNTTLQFEGYASLDVKYPPVIVEMNSSVEAIEGSHVSLLCGADSNPPPLLTWMRDGMVLREAVAKSLYLDLEEVTPGEDGVYACLAENAYGQDNRTVELSVMYAPWKPTVNGTVVAVEGETVSILCSTQSNPDPILTIFKEKQILATVIYESQLQLELPAVTPEDDGEYWCVAENQYGQRATAFQLSVEFAPIILLESHCAAARDTVQCLCVVKSNPEPSVAFELPSRNVTVNETEREFVYSERSGLLLTSILTIRGQAQAPPRVICTSRNLYGTQSLELPFQGAHR
modifications: N-linked glycans trimmed down to single N-Acetylglucosamines by Endo-Hf
notes: Myelin-associated glycoprotein (MAG), mouse, Ig domains 1-5, residues 20-508 (UniProt numbering), with N406Q; also called deglycosylated MAG1–5 N406Q; source: HEK293 GnTI- EBNA1 cells in suspension, transient, secreted; purified (Ni-NTA, SEC); deglycosylated with Endo-Hf
- binding result [4]: binds

B6: MAG1–5 N406Q glycosylated (domain or fragment, mouse, UniProt P20917 20-508, looked up)
chain: GHWGAWMPSTISAFEGTCVSIPCRFDFPDELRPAVVHGVWYFNSPYPKNYPPVVFKSRTQVVHESFQGRSRLLGDLGLRNCTLLLSTLSPELGGKYYFRGDLGGYNQYTFSEHSVLDIVNTPNIVVPPEVVAGTEVEVSCMVPDNCPELRPELSWLGHEGLGEPTVLGRLREDEGTWVQVSLLHFVPTREANGHRLGCQAAFPNTTLQFEGYASLDVKYPPVIVEMNSSVEAIEGSHVSLLCGADSNPPPLLTWMRDGMVLREAVAKSLYLDLEEVTPGEDGVYACLAENAYGQDNRTVELSVMYAPWKPTVNGTVVAVEGETVSILCSTQSNPDPILTIFKEKQILATVIYESQLQLELPAVTPEDDGEYWCVAENQYGQRATAFQLSVEFAPIILLESHCAAARDTVQCLCVVKSNPEPSVAFELPSRNVTVNETEREFVYSERSGLLLTSILTIRGQAQAPPRVICTSRNLYGTQSLELPFQGAHR
modifications: N-linked glycans (made in GnTI- cells), lacks the N-linked glycan on residue 406
notes: Myelin-associated glycoprotein (MAG), mouse, Ig domains 1-5, residues 20-508 (UniProt numbering), with N406Q; also called N406Q mutant; source: HEK293 GnTI- EBNA1 cells in suspension, transient, secreted; purified (Ni-NTA, SEC)
- binding result [6]: binds
